This passage reports protein production results from a protein production outcome set (Wang et al. 2014).

This series is described as follows: label from the status in PepcDB records.
For the sequence “MSDLINIQKKLLPDVLMIMQKRYQILRSIYFSEPVGRRTLAGMLGMSERVLRGEVEFLKAQGLVEIASSGMTVTKEGLVVFRDLENVMNQLSGLHSMEEQLAKKLQIKKCLVVQGDSDDTPWVREEMGRVAVEQLDMALTEKRNIVAVMGGSTMATVAEMMTTDFAKGRELLFVPGRGGIGEDLDNQANTICDKMATKTNTKHRVLYVPEQLGEEAYRSLLKEPAIQEGLRLVQSANAIILGIGDALAMAKRRHTGEDVLEKIIRRKAVGEAFGYYFDEQGEVVHKVPTFGLQFEDLAQIPHIIAVAGGTSKAKAIKSYMKSAPKNTILITDEGAAKSLLKGSNTLLK”, the protein production entry is recorded as “failed”. Take “MERLKIQVLVDNNTYIDRYFVGEPAVSYYIEIDGNRILFDSGYSDVFISNAEKLNIDLGNLTHVVFSHGHNDHTRGIQFLENRYDLSTVELVSHPNCFIPRKHGEKSIGAPFSAEEIKNIFMYNPKDKPFNLSKNCVFLGEIPSINDFEKRAKIGKCKIGDLWEDDYVLDDSAIVCKTDKGIFIVTGCSHSGICNIVEYAKKVCGDDRVIGILGGFHLFELNNRLDSTIQYLDKEEIRMLYPCHCVSFKVKAKMNEILNINEVGVGLTISILEHHHHHH”: the protein production result is listed as “not failed”. For the sequence “MSQPPLLSGPGGRLLGAALLIGLLAGCGSVSTGNAGSGTVGTSTTSRADVMTFQPSSLPVSYVGETYNVQVGVTGGVGPYGYRLTAGTLPPGLKFAGGALSGTPTKAGSYSFAIQATDANLSTRVQEYTMNVDALPPLALKPTLPPGEIRGETRIPVTIQAPRAVRAARLSWDLGKDVQVTRVQPADAGSVVFWQQRGSVLTVDLGFRTVPRPDARIALITVKPAKAVTLKADALGYEARDGSGKMLVDKKRPGSEPVKPAEQPGDPKVDPKAADQKATDQKATDPKTVDPKTVTPADTVEGGPLPSPALPTPSLPPTLPPVTTPPANTPPVPTPTPPANQPAPAPAPQPAPAPQPTPPSGTGGALEHHHHHH”, the protein production entry was “not failed”. In the case of “MTLTSGDKQGNTPGQASDTERWASLIGGGALVLLGLRQASLRGVLTALAGGGLIYQGATKQSTIQQAQEAIGINKPIKVEKTVTINKPADELYRYWHNFENLPTFMKHLKSVKVYNEKRSHWIANAPLGNSVEWDADILEDRENEFISWASAEGADVENSGFVRFQKAPGDVPGQAASRLRGTEVKVVLEYNLPGGALAAVVAKLFGEEPEQQIGDELRRFKMLMEAGEIATTEGQPSGRK”, the protein production result is listed as “failed”. To “MYKEGACLYRNPLRSKSDVKDWRMEGGGQISFDDHSLHLSHVQDEAHFVFWCPETFPDGIIVTWDFSPIEQPGLCMLFFAAAGIRGEDLFDPSLRKRTGTYPEYHSGDINALHLSYFRRKYAEERAFRTCNLRKSRGFHLAAMGADPLPSPDDADSPYRMKLIKDKGYVHFSINGLPILEWMDDGSTYGPVLTKGKIGFRQMAPMKAVYRDFAVHQAVRR” belongs “not failed”; to “KRYIRKEAADALKTMFDAAKKEGYELAAVSGYRSYDRQKVIFDNEVSLKGERKAKEAVAYPGESEHQTGLAMDISSRSNGFELNEAFGSTADGKWVQDNAYKYGFIIRYPKNKEDITKYEYEPWHLRYVGK”, “not failed”. For the sequence “MDEISTGMLLVILAVLLFLSAYFSGSETGMMSINRYRLRHLVQNNHPGAKRVQYLLDRPDRLIGLILIGNNLVNIGASAIATILCLRWFGDAGIVIATFGLTLIILIFSEVTPKTIAALHPERISFPSSLILMPLLKVMYPIVIGMNFITNSFMRLLGVNPKQSQMADALSSDELRTVVNEAGNLIPTSHQEMLVSILDLEKVTVEDVMVPRNEIVGIDISDDWKSIVKQLSNGQHTRVLLYRNEIDDAIGFLHARDIMRLMSKNQFTADKSILVRAARDSYFIPEGTPLNVQLLKFQRRKERIGLVVDEYGDIQGLVTLEDILEEIVGDFTTSMAPAPSESVTLETDGSFLVDGSANLRELNKEMNWDFPTDGPKTLSGLIIEQFGDIPDARLSLRLGGYPVELVEIGDTMIKQIRVFPELYQKPDNQTND”, the protein production entry is “failed”.

As for “IPKHPDSEAVAPDPFNPAATQLLDDTSWVLSAWKQADGTARAVPSADQGAPITLTLSTSTGQRHASGFSGCNRYMGSYALKDGKLSFGTLGGTRMACMTPGGQIEGAYLNALTHIDRTGVQMRAPQQMQLVLDNGDTLTFDRSTR”, the protein production result was “not failed”. For “NNLFVYCEIEDGIVADVSLELLTKGRSLANQLGCQLEAVVAGTGLKDIEKQILPYGVDKLHVFDGEGLYPYTSLPHTSILVNLFKEEQPQICLMGATVIGRDLGPRVSSALTSGLTADCTSLEIGDHEDKKEGKVYKNLLYQIRPAFGGNIVATIVNPEHRPQMATVREGVMKKAILAADYKGEVIHHDVKKYVADTDYVVKVIERHVEKAKNN”, the protein production result is given as “failed”.
